Reference: publication PMC8113581 (2021)

Biological target: SARS-CoV-2 RBD (WT) (SARS-CoV-2, UniProt P0DTC2)
Assay: SPR

B1: P4A1 (antibody, V domains shown)
VH: EVQLVESGGGLIQPGGSLRLSCAASGFIVSSNYMSWVRQAPGKGLEWVSIIYSGGSTFYADSVKGRFTISRDNSKNTLYLQMNSLRVEDTAVYYCARDLQELGSLDYWGQGTLVTVSS
VL: DIQMTQSPSSVSASVGDRVTITCRASQGISSWLAWYQQKPGKAPKLLIYAASSLQSGVPSRFSGSGSGTDFTLTISSLQPEDFATYYCQEANSFPYTFGQGTKLEIK
Kd: 0.102 nM
